Measurements: paper PMC3627576 (Nucleic Acids Research, 2013)
Numbering of substitutions follows the chain as printed.

T1: Pab-Pol D (Pyrococcus abyssi, UniProt Q9V2F4)
T1 sequence (Q9V2F4 1-954): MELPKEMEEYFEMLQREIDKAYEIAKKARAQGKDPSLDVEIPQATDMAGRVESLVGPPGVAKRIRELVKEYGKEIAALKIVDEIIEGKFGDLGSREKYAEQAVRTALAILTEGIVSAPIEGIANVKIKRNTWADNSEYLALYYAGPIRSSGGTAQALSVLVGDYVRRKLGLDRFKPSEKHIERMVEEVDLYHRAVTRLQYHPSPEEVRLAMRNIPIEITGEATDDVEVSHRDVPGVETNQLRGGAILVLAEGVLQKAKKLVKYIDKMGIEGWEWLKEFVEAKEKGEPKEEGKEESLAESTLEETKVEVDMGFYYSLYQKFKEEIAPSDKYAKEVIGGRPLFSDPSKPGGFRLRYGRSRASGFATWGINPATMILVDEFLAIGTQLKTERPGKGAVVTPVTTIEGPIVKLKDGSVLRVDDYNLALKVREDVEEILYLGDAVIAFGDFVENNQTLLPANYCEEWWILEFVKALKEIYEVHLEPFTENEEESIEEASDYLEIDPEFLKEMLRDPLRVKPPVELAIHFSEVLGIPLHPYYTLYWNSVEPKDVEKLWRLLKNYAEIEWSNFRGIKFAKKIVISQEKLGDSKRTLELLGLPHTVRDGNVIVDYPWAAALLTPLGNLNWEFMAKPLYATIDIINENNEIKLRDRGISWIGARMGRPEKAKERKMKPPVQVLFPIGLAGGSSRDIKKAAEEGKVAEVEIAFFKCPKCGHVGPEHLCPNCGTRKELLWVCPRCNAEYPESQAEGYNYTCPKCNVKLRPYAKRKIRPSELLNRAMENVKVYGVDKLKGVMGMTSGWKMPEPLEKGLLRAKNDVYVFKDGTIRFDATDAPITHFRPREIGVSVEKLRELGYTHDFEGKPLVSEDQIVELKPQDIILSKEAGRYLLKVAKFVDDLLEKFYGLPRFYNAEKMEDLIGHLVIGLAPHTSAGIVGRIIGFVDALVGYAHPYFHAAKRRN
T1 sequence (Q9V2F4 1140-1455): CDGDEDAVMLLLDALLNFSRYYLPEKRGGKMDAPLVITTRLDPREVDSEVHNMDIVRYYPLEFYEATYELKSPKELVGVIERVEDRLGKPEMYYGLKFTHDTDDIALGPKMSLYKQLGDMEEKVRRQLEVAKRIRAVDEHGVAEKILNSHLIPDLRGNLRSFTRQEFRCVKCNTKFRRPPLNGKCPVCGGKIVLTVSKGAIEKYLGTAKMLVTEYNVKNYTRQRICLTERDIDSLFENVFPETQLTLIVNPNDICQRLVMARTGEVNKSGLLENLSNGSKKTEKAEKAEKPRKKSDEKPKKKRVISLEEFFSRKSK
T1 sequence (Q9V2F3 1-619 partner): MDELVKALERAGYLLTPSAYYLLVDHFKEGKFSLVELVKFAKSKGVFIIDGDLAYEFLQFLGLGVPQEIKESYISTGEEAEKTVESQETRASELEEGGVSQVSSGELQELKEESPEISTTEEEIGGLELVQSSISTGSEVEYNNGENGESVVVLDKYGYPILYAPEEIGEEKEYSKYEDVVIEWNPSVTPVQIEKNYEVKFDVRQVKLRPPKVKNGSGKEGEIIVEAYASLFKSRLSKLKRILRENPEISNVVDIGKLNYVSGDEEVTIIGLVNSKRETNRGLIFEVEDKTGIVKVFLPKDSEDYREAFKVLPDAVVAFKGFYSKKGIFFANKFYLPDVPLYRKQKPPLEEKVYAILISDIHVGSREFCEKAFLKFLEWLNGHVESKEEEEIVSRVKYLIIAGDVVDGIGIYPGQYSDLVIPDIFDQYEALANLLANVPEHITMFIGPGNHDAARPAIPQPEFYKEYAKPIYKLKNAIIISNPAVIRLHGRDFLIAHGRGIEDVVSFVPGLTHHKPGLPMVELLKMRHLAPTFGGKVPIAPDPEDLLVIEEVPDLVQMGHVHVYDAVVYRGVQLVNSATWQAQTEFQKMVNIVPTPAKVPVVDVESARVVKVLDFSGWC

B1: single strand, X=T (ssDNA)
DNA: TTTCTGGTTCCAGCTGGACCATTCGCCTATAGGACCTATT
B2: primer-template +1, X=U (dsDNA)
DNA 1: B1 DNA with T9U
DNA 2: AATAGGTCCTATAGGCGAATGGTCCAGCTGG
modifications: deoxyuridine at template position 9
B3: single strand, X=U (ssDNA)
DNA: B1 DNA with T9U
modifications: deoxyuridine at position 9
B4: primer-template +1, X=T (dsDNA)
DNA 1: B1 DNA
DNA 2: B2 DNA 2
B5: primer-template -1, X=U (dsDNA)
DNA 1: B1 DNA with T9U
DNA 2: AATAGGTCCTATAGGCGAATGGTCCAGCTGGAA
modifications: deoxyuridine at template position 9
B6: primer-template -1, X=T (dsDNA)
DNA 1: B1 DNA
DNA 2: B5 DNA 2

What follows are molecules tested against Pfu-Pol D (family-D DNA polymerase, DP1 small + DP2 large subunits) (Pyrococcus furiosus, UniProt P81409;P81412 1-1263;1-613) (assay: fluorescence anisotropy). Conditions: not given.
Chain of Pfu-Pol D (family-D DNA polymerase, DP1 small + DP2 large subunits) (P81409 whole entry, chain 1 of 2): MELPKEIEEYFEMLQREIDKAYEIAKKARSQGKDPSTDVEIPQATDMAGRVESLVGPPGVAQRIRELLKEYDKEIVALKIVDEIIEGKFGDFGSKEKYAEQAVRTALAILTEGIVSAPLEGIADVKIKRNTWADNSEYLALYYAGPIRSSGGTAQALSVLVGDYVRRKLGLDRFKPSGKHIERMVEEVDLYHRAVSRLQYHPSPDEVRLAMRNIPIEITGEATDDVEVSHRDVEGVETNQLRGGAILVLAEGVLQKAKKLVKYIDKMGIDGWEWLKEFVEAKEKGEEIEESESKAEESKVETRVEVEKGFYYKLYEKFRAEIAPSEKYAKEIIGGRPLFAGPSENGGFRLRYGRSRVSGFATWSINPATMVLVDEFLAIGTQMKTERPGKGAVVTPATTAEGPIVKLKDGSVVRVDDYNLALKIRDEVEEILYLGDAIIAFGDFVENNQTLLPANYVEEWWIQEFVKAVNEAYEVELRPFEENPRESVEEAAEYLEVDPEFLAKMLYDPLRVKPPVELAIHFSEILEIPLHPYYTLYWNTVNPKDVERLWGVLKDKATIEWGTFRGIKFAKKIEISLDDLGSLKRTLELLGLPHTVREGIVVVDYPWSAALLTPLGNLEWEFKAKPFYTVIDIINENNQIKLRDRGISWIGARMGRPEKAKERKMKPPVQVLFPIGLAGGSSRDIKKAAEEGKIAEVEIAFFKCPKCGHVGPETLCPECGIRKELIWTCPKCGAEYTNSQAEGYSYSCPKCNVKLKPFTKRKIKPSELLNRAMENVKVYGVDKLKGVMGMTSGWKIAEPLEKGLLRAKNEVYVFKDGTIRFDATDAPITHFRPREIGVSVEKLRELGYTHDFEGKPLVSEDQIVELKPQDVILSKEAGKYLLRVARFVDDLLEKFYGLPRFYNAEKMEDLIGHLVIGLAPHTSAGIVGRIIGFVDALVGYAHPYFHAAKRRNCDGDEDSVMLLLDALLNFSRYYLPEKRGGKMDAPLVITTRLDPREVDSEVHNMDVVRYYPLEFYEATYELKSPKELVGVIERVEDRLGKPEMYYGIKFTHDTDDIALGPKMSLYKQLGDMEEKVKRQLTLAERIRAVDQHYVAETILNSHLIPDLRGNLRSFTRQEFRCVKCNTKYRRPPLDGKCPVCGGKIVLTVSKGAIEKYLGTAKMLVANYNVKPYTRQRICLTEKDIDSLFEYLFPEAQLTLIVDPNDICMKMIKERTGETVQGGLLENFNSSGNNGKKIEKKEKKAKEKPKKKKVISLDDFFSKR
Chain of Pfu-Pol D (family-D DNA polymerase, DP1 small + DP2 large subunits) (P81412 whole entry, chain 2 of 2): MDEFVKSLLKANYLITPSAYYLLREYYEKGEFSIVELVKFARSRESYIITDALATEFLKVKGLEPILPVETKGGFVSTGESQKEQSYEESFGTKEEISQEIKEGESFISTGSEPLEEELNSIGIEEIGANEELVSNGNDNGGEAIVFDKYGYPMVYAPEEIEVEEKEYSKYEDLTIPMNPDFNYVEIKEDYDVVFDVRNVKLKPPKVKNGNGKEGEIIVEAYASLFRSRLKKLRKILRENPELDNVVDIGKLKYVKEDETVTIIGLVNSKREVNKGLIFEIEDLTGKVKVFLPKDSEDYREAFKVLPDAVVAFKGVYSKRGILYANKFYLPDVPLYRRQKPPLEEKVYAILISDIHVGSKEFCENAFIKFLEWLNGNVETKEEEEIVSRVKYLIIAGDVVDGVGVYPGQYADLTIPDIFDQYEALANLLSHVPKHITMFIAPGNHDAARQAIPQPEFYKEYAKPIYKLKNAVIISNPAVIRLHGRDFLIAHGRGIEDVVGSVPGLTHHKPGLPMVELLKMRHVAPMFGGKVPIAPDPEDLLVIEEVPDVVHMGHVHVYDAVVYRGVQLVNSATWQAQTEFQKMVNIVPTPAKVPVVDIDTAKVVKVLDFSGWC

| Molecule | Kd |
| --- | --- |
| B1 | 6 ± 1.6 nM |
| B2 | 5.8 ± 0.4 nM |
| B3 | 3.4 ± 0.3 nM |
| B4 | 9.1 ± 1.5 nM |
| B5 | 5.2 ± 1.3 nM |
| B6 | 9.3 ± 0.6 nM |

These molecules were tested against T1, Pab-Pol D (assay: primer extension with a single dNTP, denaturing gel). Conditions: exo+ enzyme; template U at +1; otherwise same.
Type: biochemical

| Molecule | primer extension with a single dNTP, denaturing gel |
| --- | --- |
| Nc1ncnc2c1ncn2[C@H]1C[C@H](O)[C@@H](COP(=O)(O)OP(=O)(O)OP(=O)(O)O)O1 [dATP] | Pab-Pol D exo^+ only incorporated adenine opposite uracil |
